# Test results published in patent US6942981.
# Ends that are not written are not given here. * marks the point of attachment. Biotin = O=C1N[C@H]2[C@H](CS[C@H]2CCCCC(=O)*)N1
# T1: GST-TAX2 PDZ domain fusion protein (human, UniProt O14908 129-216)
# T1 construct: not shown: glutathione S-transferase (GST) encoded by pGEX-3X
# T1 chain: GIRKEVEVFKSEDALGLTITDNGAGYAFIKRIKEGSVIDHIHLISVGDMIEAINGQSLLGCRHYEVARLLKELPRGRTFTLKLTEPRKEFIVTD
# T2: GST-DVL1 PDZ domain fusion protein (human)
# T2 construct: also called human dishevelled segment polarity protein homolog; not shown: glutathione S-transferase (GST) encoded by pGEX-3X
# T2 chain: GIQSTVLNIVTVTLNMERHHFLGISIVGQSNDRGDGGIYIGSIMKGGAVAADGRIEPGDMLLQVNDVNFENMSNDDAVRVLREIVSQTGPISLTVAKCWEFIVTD
# T3: GST-MPP2 PDZ domain fusion protein
# T3 construct: also called maguk p55 subfamily member 2 (DLG2); MMP2; not shown: glutathione S-transferase (GST) encoded by pGEX-3X
# T3 chain: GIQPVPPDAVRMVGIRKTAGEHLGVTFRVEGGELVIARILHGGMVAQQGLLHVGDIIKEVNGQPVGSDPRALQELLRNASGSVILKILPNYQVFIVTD
# T4: GST-SYN1a (alpha1-syntrophin) PDZ domain fusion protein (Homo sapiens (Human), UniProt Q13424 84-179)
# T4 construct: also called SYN 1 α; not shown: glutathione S-transferase (GST) encoded by pGEX-3X
# T4 sequence: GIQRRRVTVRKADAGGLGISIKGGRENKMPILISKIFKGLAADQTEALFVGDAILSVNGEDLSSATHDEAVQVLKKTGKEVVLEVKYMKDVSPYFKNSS
# T5: GST-NeDLG PDZ domains 1-2 fusion protein (Mus musculus (Mouse), UniProt P70175 147-332)
# T5 construct: also called NeDLG1; not shown: glutathione S-transferase (GST) encoded by pGEX-3X
# T5 chain: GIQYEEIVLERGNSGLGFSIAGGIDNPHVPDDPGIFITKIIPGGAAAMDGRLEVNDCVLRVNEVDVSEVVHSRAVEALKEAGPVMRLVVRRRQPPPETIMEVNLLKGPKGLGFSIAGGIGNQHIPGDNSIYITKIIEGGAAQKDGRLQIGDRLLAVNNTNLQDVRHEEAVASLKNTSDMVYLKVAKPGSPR
# T6: GST-LIMK2 PDZ domain fusion protein (human, UniProt P53671 147-237)
# T6 construct: also called human LIM domain kinase 2; not shown: glutathione S-transferase (GST) encoded by pGEX-3X
# T6 sequence: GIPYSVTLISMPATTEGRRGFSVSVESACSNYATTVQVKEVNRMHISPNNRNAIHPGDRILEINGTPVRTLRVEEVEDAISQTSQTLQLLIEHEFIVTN
# T7: GST-MINT3 PDZ domain fusion protein (human)
# T7 construct: also called human MINT3; not shown: glutathione S-transferase (GST) encoded by pGEX-3X
# T7 chain: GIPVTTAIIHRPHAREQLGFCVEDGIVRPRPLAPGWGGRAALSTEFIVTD
# Assays:
# [1] = target: T1, GST-TAX2 PDZ domain fusion protein; test: A/G assays
# [2] = target: T2, GST-DVL1 PDZ domain fusion protein; test: A/G assays
# [3] = target: T3, GST-MPP2 PDZ domain fusion protein; test: A/G assays
# [4] = target: T4, GST-SYN1a (alpha1-syntrophin) PDZ …; test: A/G assays
# [5] = target: T5, GST-NeDLG PDZ domains 1-2 fusion protein; test: A/G assays
# [6] = target: T6, GST-LIMK2 PDZ domain fusion protein; test: A/G assays
# [7] = target: T7, GST-MINT3 PDZ domain fusion protein; test: A/G assays
# [8] = target: T5, GST-NeDLG PDZ domains 1-2 fusion protein; test: G assay
# [9] = target: T5, GST-NeDLG PDZ domains 1-2 fusion protein; test: A assay
Binder,binding result [1],binding result [2],binding result [3],binding result [4],binding result [5],binding result [6],binding result [7],binding result [8],binding result [9]
Biotin-GKGKSIGRAPEASLQDKEGA [CC CKR-2 C-terminal peptide AA42L],no binding,no binding,no binding,no binding,no binding,no binding,no binding,,
Biotin-KKGTYLTDETHREVKFTSL [CD46 (form 1) C-terminal peptide AA10L],no binding,no binding,no binding,no binding,,no binding,no binding,binds,
Biotin-DLGNMEENKKLEENNHKTEA [CD166 (CD6L) C-terminal peptide AA20L],no binding,no binding,no binding,no binding,no binding,no binding,no binding,,
Biotin-CAISGTSSDRGYGSPRYAEV [CLASP-4 C-terminal peptide AA3L-V],no binding,no binding,no binding,no binding,,no binding,no binding,,
Biotin-SPQPDSTDNDDYDDISAA [CD6 C-terminal peptide AA6L],no binding,no binding,no binding,no binding,no binding,no binding,no binding,,
"Biotin-HKAEIHAQPSDKERLTSDA [CD49F (Aform, alpha6) C-terminal peptide AA12L]",no binding,no binding,no binding,no binding,no binding,no binding,no binding,,
Biotin-VTSPNKHLGLVTPHKTELV [CD83 C-terminal peptide AA47L],no binding,no binding,no binding,no binding,,no binding,no binding,,binds
Biotin-YSATYSELEDPGEMSPPIDL (also called FceRlb; FcεRβI) [FceRIb C-terminal peptide AA25L],no binding,no binding,no binding,no binding,no binding,no binding,no binding,,
Biotin-PYGTAMEKAQLKPPATSDA [CD49E (alpha-4) C-terminal peptide AA11L],no binding,no binding,no binding,no binding,no binding,no binding,no binding,,
Biotin-SSKSKSSEESQTFFGLYKL (not fully specified) [FasLigand C-terminal peptide AA23L-M],no binding,no binding,no binding,no binding,no binding,no binding,no binding,,

# Further lines, results first:
binding result [1],binding result [2],binding result [3],binding result [4],binding result [5],binding result [6],binding result [7],binding result [8],binding result [9],Binder
no binding,no binding,no binding,no binding,no binding,no binding,no binding,,,Biotin-PSWRRSSLSESENATSLTTF [BLR-1 C-terminal peptide AA45L]
no binding,no binding,no binding,no binding,no binding,no binding,no binding,,,Biotin-ENLAPVTTFGKTNGYIA [CD148 (DEP-1) C-terminal peptide AA19L (ending GYIA)]
no binding,no binding,no binding,no binding,no binding,no binding,no binding,,,Biotin-TSGTGHNQTRALRASESGI [CD97 (CD55L) C-terminal peptide AA14L]
no binding,no binding,no binding,no binding,no binding,no binding,no binding,,,Biotin-LERVSSTSPSTGEHELSAGF [CC CKR-1R C-terminal peptide AA41L]
no binding,no binding,no binding,no binding,no binding,no binding,no binding,,,Biotin-SSSQSLESDGSYQKPSYIL [CD62E C-terminal peptide AA48L]
no binding,no binding,no binding,no binding,no binding,no binding,no binding,,,Biotin-DTPSSSYTQSTMDHDLHDAL [CC CKR-4 C-terminal peptide AA44L]
no binding,no binding,no binding,no binding,no binding,no binding,no binding,,,Biotin-SVFSIPTLWSPWPPSSSSQL (also called CD3-η) [CD3n C-terminal peptide AA4L]
no binding,no binding,no binding,no binding,no binding,no binding,no binding,,,Biotin-EVICYIEKPGVETLEDSVF [CDW125 (IL5R) C-terminal peptide AA28L]
no binding,no binding,no binding,no binding,no binding,no binding,no binding,,,Biotin-SMQPDNSSDSDYDLHGAQRL [CD5 C-terminal peptide AA49L]
no binding,no binding,no binding,no binding,no binding,no binding,no binding,,,Biotin-LERTSSVSPSTAEPELSIVF [CC CKR-3 C-terminal peptide AA43L]
